From patent US9260500B2, “Peptide and use thereof” (Takeda Pharmaceutical Company Limited, priority 2009, dated 2016)
Non-standard residues stand in square brackets, D forms with d. *: point of attachment. X1 = ((1S)-1-carboxy-2-(4-hydroxyphenyl)ethyl)carbamoyl, O=C(O)[C@H](Cc1ccc(O)cc1)NC(=O)*; X3 = ((1S)-1-Carboxy-2-hydroxyethyl)carbamoyl, O=C(O)[C@H](CO)NC(=O)*; X7 = (tetrahydro-2H-pyran-4-yl)carbamoyl, O=C(NC1CCOCC1)*; (3-Carboxypropyl)carbamoyl = O=C(O)CCCNC(=O)*; (carboxymethyl)carbamoyl = O=C(O)CNC(=O)*; Imidazole4carbonyl = O=C(c1cnc[nH]1)*; tBuAla = CC(C)(C)C[C@H](N)C(=O)O; 4Pal = N[C@@H](Cc1ccncc1)C(=O)O; dHyp = O=C(O)[C@H]1C[C@H](O)CN1; Cha = N[C@@H](CC1CCCCC1)C(=O)O; Isonicotinoyl = O=C(c1ccncc1)*; Iva = CC[C@](C)(N)C(=O)O; Aib = CC(C)(N)C(=O)O

Tests used:
[1] = target: T1, human Y2 receptor (Homo sapiens, UniProt P49146); assay: Human Y2 Receptor G Protein Binding Assay (GBA), [35S]GTPγS; format: biochemical; conditions: EC50 of test compound/EC50 of PYY(3-36) (PYY3-36 taken as 1), hY2R/CHO membrane fraction
T1 construct: expressed in transfected cells; membrane fraction
T1 sequence (P49146 1-381): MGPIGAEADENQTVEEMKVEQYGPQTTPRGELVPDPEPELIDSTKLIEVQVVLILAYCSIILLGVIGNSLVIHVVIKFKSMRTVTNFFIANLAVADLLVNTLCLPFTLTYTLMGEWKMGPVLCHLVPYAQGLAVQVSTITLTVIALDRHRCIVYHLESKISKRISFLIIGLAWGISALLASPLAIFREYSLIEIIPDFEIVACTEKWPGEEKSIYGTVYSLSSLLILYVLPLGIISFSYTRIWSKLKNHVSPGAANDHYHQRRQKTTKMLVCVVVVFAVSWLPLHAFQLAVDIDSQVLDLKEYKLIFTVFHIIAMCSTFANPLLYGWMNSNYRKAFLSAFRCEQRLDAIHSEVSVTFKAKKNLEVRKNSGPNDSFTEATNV
Procedure, shortened: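 Agonism measured as [35S]GTPγS binding, read by GF/C filtration and scintillation counting after 120 min at room temperature, using human Y2 membranes at 1 μg protein/mL in pH 7.4 Tris/MgCl2/NaCl/GDP buffer. Compound serially diluted 100 μM–1 nM; EC50 normalized to PYY(3-36) (ratio = compound/PYY).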

[2] = test system: male C57EL/6J mice; assay: 3-Days Continuous Subcutaneous Administration Test-1 (food intake suppressing activity); format: in vivo, mouse; conditions: 0.03 mg/kg/day, subcutaneous Alzet pump, food consumption over 3 days; relative to food intake suppression rate for PYY(3-36) (1 mg/kg/day) taken as 100%
Procedure, shortened: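 Male […] mice, 12-13 weeks, received compound at 0.03 mg/kg/day by subcutaneous osmotic pump (50% DMSO vehicle), housed singly with free food access. Food consumed over 3 days measured; suppression expressed relative to PYY(3-36) (1 mg/kg/day) set as 100%.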

[3] = target: T1, human Y2 receptor; assay: Receptor Binding Assay (RBA) for Human Y2, [125I]-PYY displacement on hY2R/CHO membrane fraction; conditions: IC50 of test compound/IC50 of PYY(3-36) (PYY(3-36) taken as 1)
Procedure, shortened: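 Read-out is [125I]-PYY displacement from membranes of CHO/dhfr− cells stably transfected with human Y2R. Membranes were obtained by disrupting cells in a buffer of 10 mM NaHCO3, 5 mM EDTA and protease inhibitors.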

| Substance | GBA EC50 Ratio [1] | RBA IC50 Ratio [3] | food intake suppression rate (%) [2] [%] |
| --- | --- | --- | --- |
| (3-Carboxypropyl)carbamoyl-[D-Hyp24, Iva25, Pya(4)26, Cha27,36, Leu(Me)28, Lys30, Aib31]-PYY(23-36) ({(3-Carboxypropyl)carbamoyl}-S[dHyp][Iva][4Pal][Cha][tBuAla]NK[Aib]TRQR[Cha]-NH2; ends and bridges not checked) [compound No. 349] | 1.7 | 0.57 | 52 |
| [(1S)-1-Carboxy-2-(4-hydroxyphenyl)ethyl]carbamoyl-[D-Pro24, Pya(4)26, Cha27,36, Aib28,31, Lys30]-PYY(23-36) (X1-S[dP]R[4Pal][Cha][Aib]NK[Aib]TRQR[Cha]-NH2; SMILES C[C@@H](O)[C@H](NC(=O)C(C)(C)NC(=O)[C@H](CCCCN)NC(=O)[C@H](CC(N)=O)NC(=O)C(C)(C)NC(=O)[C@H](CC1CCCCC1)NC(=O)[C@H](Cc1ccncc1)NC(=O)[C@H](CCCNC(=N)N)NC(=O)[C@H]1CCCN1C(=O)[C@H](CO)NC(=O)N[C@@H](Cc1ccc(O)cc1)C(=O)O)C(=O)N[C@@H](CCCNC(=N)N)C(=O)N[C@@H](CCC(N)=O)C(=O)N[C@@H](CCCNC(=N)N)C(=O)N[C@@H](CC1CCCCC1)C(N)=O) [compound No. 285] | 1.2 | 0.95 | 28 |
| Ac-[D-Pro24, Iva25,28, Pya(4)26, Cha27,36, Lys30, Aib31]-PYY(23-36) (Ac-S[dP][Iva][4Pal][Cha][Iva]NK[Aib]TRQR[Cha]-NH2; SMILES CC[C@](C)(NC(=O)[C@H](CC1CCCCC1)NC(=O)[C@H](Cc1ccncc1)NC(=O)[C@](C)(CC)NC(=O)[C@H]1CCCN1C(=O)[C@H](CO)NC(C)=O)C(=O)N[C@@H](CC(N)=O)C(=O)N[C@@H](CCCCN)C(=O)NC(C)(C)C(=O)N[C@H](C(=O)N[C@@H](CCCNC(=N)N)C(=O)N[C@@H](CCC(N)=O)C(=O)N[C@@H](CCCNC(=N)N)C(=O)N[C@@H](CC1CCCCC1)C(N)=O)[C@@H](C)O) [compound No. 296] | 1.0 | 1.1 | 36 |
| (Carboxymethyl)carbamoyl-[D-Pro24, Pya(4)26, Cha27,36, Aib28,31, Lys30]-PYY(23-36) ({(carboxymethyl)carbamoyl}-S[dP]R[4Pal][Cha][Aib]NK[Aib]TRQR[Cha]-NH2; ends and bridges not checked) [compound No. 287] | 1.2 | 1.2 | 42 |
| 4-Imidazolecarbonyl-[D-Hyp24, Iva25, Pya(4)26, Cha27,36, Leu(Me)28, Lys30, Aib31]-PYY(23-36) (Imidazole4carbonyl-S[dHyp][Iva][4Pal][Cha][tBuAla]NK[Aib]TRQR[Cha]-NH2; ends and bridges not checked) [compound No. 336] | 1.4 | 0.75 | 52 |

More lines, main results first:

| GBA EC50 Ratio [1] | RBA IC50 Ratio [3] | Substance | food intake suppression rate (%) [2] [%] |
| --- | --- | --- | --- |
| 2.9 | 2.9 | Ac-[D-Pro24, Iva25, Pya(4)26, Cha27,36, Aib28,31, Lys30]-PYY(23-36) (Ac-S[dP][Iva][4Pal][Cha][Aib]NK[Aib]TRQR[Cha]-NH2; SMILES CC[C@](C)(NC(=O)[C@H]1CCCN1C(=O)[C@H](CO)NC(C)=O)C(=O)N[C@@H](Cc1ccncc1)C(=O)N[C@@H](CC1CCCCC1)C(=O)NC(C)(C)C(=O)N[C@@H](CC(N)=O)C(=O)N[C@@H](CCCCN)C(=O)NC(C)(C)C(=O)N[C@H](C(=O)N[C@@H](CCCNC(=N)N)C(=O)N[C@@H](CCC(N)=O)C(=O)N[C@@H](CCCNC(=N)N)C(=O)N[C@@H](CC1CCCCC1)C(N)=O)[C@@H](C)O) [compound No. 237] | 46 |
| 1.3 | 0.8 | Ac-[Glu23, D-Hyp24, Cha27,28,36, Lys30, Aib31]-PYY(23-36) (Ac-E[dHyp]RH[Cha][Cha]NK[Aib]TRQR[Cha]-NH2; SMILES CC(=O)N[C@@H](CCC(=O)O)C(=O)N1C[C@@H](O)C[C@@H]1C(=O)N[C@@H](CCCNC(=N)N)C(=O)N[C@@H](Cc1c[nH]cn1)C(=O)N[C@@H](CC1CCCCC1)C(=O)N[C@@H](CC1CCCCC1)C(=O)N[C@@H](CC(N)=O)C(=O)N[C@@H](CCCCN)C(=O)NC(C)(C)C(=O)N[C@H](C(=O)N[C@@H](CCCNC(=N)N)C(=O)N[C@@H](CCC(N)=O)C(=O)N[C@@H](CCCNC(=N)N)C(=O)N[C@@H](CC1CCCCC1)C(N)=O)[C@@H](C)O) [compound No. 204] | 16 |
| 1.1 | 1.0 | 4-Pyridinecarbonyl-[D-Pro24, Iva25, Pya(4)26, Cha27,36, Aib28,31, Lys30]-PYY(23-36) (Isonicotinoyl-S[dP][Iva][4Pal][Cha][Aib]NK[Aib]TRQR[Cha]-NH2; SMILES CC[C@](C)(NC(=O)[C@H]1CCCN1C(=O)[C@H](CO)NC(=O)c1ccncc1)C(=O)N[C@@H](Cc1ccncc1)C(=O)N[C@@H](CC1CCCCC1)C(=O)NC(C)(C)C(=O)N[C@@H](CC(N)=O)C(=O)N[C@@H](CCCCN)C(=O)NC(C)(C)C(=O)N[C@H](C(=O)N[C@@H](CCCNC(=N)N)C(=O)N[C@@H](CCC(N)=O)C(=O)N[C@@H](CCCNC(=N)N)C(=O)N[C@@H](CC1CCCCC1)C(N)=O)[C@@H](C)O) [compound No. 301] | 35 |
| 3.0 | 3.5 | [(1S)-1-Carboxy-2-hydroxyethyl]carbamoyl-[D-Pro24, Iva25, Pya(4)26, Cha27,36, Aib28,31, Lys30]-PYY(23-36) (X3-S[dP][Iva][4Pal][Cha][Aib]NK[Aib]TRQR[Cha]-NH2; SMILES CC[C@](C)(NC(=O)[C@H]1CCCN1C(=O)[C@H](CO)NC(=O)N[C@@H](CO)C(=O)O)C(=O)N[C@@H](Cc1ccncc1)C(=O)N[C@@H](CC1CCCCC1)C(=O)NC(C)(C)C(=O)N[C@@H](CC(N)=O)C(=O)N[C@@H](CCCCN)C(=O)NC(C)(C)C(=O)N[C@H](C(=O)N[C@@H](CCCNC(=N)N)C(=O)N[C@@H](CCC(N)=O)C(=O)N[C@@H](CCCNC(=N)N)C(=O)N[C@@H](CC1CCCCC1)C(N)=O)[C@@H](C)O) [compound No. 332] | 32 |
| 1.9 | 1.2 | Ac-[Glu23, D-Hyp24, Iva25, Pya(4)26, Cha27,36, Leu(Me)28, Lys30, Aib31]-PYY(23-36) (Ac-E[dHyp][Iva][4Pal][Cha][tBuAla]NK[Aib]TRQR[Cha]-NH2; SMILES CC[C@](C)(NC(=O)[C@H]1C[C@H](O)CN1C(=O)[C@H](CCC(=O)O)NC(C)=O)C(=O)N[C@@H](Cc1ccncc1)C(=O)N[C@@H](CC1CCCCC1)C(=O)N[C@@H](CC(C)(C)C)C(=O)N[C@@H](CC(N)=O)C(=O)N[C@@H](CCCCN)C(=O)NC(C)(C)C(=O)N[C@H](C(=O)N[C@@H](CCCNC(=N)N)C(=O)N[C@@H](CCC(N)=O)C(=O)N[C@@H](CCCNC(=N)N)C(=O)N[C@@H](CC1CCCCC1)C(N)=O)[C@@H](C)O) [compound No. 351] | 27 |
| 1.8 | 1.7 | (Tetrahydro-2H-pyran-4-yl)carbamoyl-[D-Pro24, Iva25, Pya(4)26, Cha27,36, Aib28,31, Lys30]-PYY(23-36) (X7-S[dP][Iva][4Pal][Cha][Aib]NK[Aib]TRQR[Cha]-NH2; SMILES CC[C@](C)(NC(=O)[C@H]1CCCN1C(=O)[C@H](CO)NC(=O)NC1CCOCC1)C(=O)N[C@@H](Cc1ccncc1)C(=O)N[C@@H](CC1CCCCC1)C(=O)NC(C)(C)C(=O)N[C@@H](CC(N)=O)C(=O)N[C@@H](CCCCN)C(=O)NC(C)(C)C(=O)N[C@H](C(=O)N[C@@H](CCCNC(=N)N)C(=O)N[C@@H](CCC(N)=O)C(=O)N[C@@H](CCCNC(=N)N)C(=O)N[C@@H](CC1CCCCC1)C(N)=O)[C@@H](C)O) [compound No. 330] | 36 |
| 0.91 | 0.77 | 4-Imidazolecarbonyl-[D-Pro24, Iva25, Pya(4)26, Cha27,36, Aib28,31, Lys30]-PYY(23-36) (Imidazole4carbonyl-S[dP][Iva][4Pal][Cha][Aib]NK[Aib]TRQR[Cha]-NH2; SMILES CC[C@](C)(NC(=O)[C@H]1CCCN1C(=O)[C@H](CO)NC(=O)c1cnc[nH]1)C(=O)N[C@@H](Cc1ccncc1)C(=O)N[C@@H](CC1CCCCC1)C(=O)NC(C)(C)C(=O)N[C@@H](CC(N)=O)C(=O)N[C@@H](CCCCN)C(=O)NC(C)(C)C(=O)N[C@H](C(=O)N[C@@H](CCCNC(=N)N)C(=O)N[C@@H](CCC(N)=O)C(=O)N[C@@H](CCCNC(=N)N)C(=O)N[C@@H](CC1CCCCC1)C(N)=O)[C@@H](C)O) [compound No. 300] | 35 |
